Reference: patent publication US7358088B2, “Peptides and compositions which modulate apoptosis” (ImmunoGen, Inc., priority 1995, dated 2008)
Ends that are not written are not given here.

B1: Bip1a: Bcl-2 interacting protein that induces apoptosis, lacks BH1 and BH2 (protein)
chain: MSEVRPLSRDILMETLLYEQLLEPPTMEVLGMTDSEEDLDPMEDFDSLECMEGSDALALRLACIGDEMDVSLRAPRLAQLSEVAMHSLGLAFIYDQTEDIRDVLRSFMDGFTTLKENIMRFWRSPNPGSWVSCEQVLLALLLLLALLLPLLSGGLHLLLK
B2: Bax ΔGD: Bax mutant with small deletion removing the conserved GD domain motif (protein)
chain: MDGSGEQPRGGGPTSSEQIMKTGALLLQGFIQDRAGRMGGEAPELALDPVPQDASTKKMELQRMIAAVDTDSPREVFFRVAADMFSDGNFNWGRVVALFYFASKLVLKALCTKVPELIRTIMGWTLDFLRERLLGWIQDQGGWDGLLSYFGTPTWQTVTIFVAGVLTASLTIWKKMG
B3: Bip1a ΔGD: Bip1a mutant with small deletion removing the conserved GD domain motif (protein)
chain: MSEVRPLSRDILMETLLYEQLLEPPTMEVLGMTDSEEDLDPMEDFDSLECMEGSDALRAPRLAQLSEVAMHSLGLAFIYDQTEDIRDVLRSFMDGFTTLKENIMRFWRSPNPGSWVSCEQVLLALLLLLALLLPLLSGGLHLLLK

What follows are molecules tested against T1, Bcl-xL/Bak GD domain interaction (Homo sapiens, UniProt Q07817) (assay: High through-put screening assay 2: GST-Bcl-xL binding to biotinylated Bak GD peptide on neutravidin wells, ELISA). Conditions: competing peptide added, ELISA signal.
T1 construct: made in house; host or cells: E. coli
Protocol: An assay was developed to screen for compounds that block the interaction between the Bcl-2 homologs, Bcl-xL and Bak. A synthetic peptide corresponding to the Bak GD binding domain ([…] [SEQ ID NO: 35]) was biotinylated and bound to wells coated with neutravidin. […] Peptides encompassing the GD domain from various Bcl-2 family members were tested for their ability to block GD domain-mediated interactions in this assay. Peptides tested: Bcl-w [SEQ ID NO: 39] […] ([…]), Bak [SEQ ID NO: 36]([…]), Bak-15 [SEQ ID NO: 37] ([…]), Bak-15L78A [SEQ ID NO: 38] ([…]), control (no peptide).
In a modification of the high through-put screening assay 1 described herein, wells are coated with an avidin derivative, to which a biotinylated peptide/protein is bound. A GST-fusion protein that can interact with the biotinylated peptide/protein is added in the presence or absence of test compounds. The plates are incubated and then unbound GST-fusion protein is removed by washing. The amount of GST-fusion protein specifically bound to the tethered peptide/protein is determined by ELISA using an anti-GST antibody conjugated to horse radish peroxidase. Compounds which block the interaction between the biotinylated peptide/protein and the GST-fusion protein cause a decrease in the ELISA signal.
In a specific example, an assay was developed to screen for compounds that block the interaction between the Bcl-2 homologs, Bcl-xL and Bak. A biotinylated Bak GD domain peptide (amino acid residues 71-89; N-biotinylated […] [SEQ ID NO: 35]) was bound to wells coated with neutravidin. […] Using this assay, peptides from Bcl-2 family members were identified which block the Bcl-xL/Bak GD domain interaction (FIG. 10).

T1 sequence (Q07817 whole entry, the tested form may be a part): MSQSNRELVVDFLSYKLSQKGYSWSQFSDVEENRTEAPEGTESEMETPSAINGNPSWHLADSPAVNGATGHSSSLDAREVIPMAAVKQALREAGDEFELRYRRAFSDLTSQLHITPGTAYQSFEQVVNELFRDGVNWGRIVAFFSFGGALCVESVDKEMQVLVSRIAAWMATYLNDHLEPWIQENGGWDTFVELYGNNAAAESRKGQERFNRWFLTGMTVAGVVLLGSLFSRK

**Q.** Which “inhibition of Bcl-xL/Bak GD domain binding” value (“inhibition” below) does the source give for “GSDALALRLACIGDEMDVSL [Bip1a peptide, peptide encompassing the GD domain from Bip1a]” here?
**A.** concentration-dependent inhibition of binding

**Q.** With “STKKLSECLKRIGDELDSNH [Bax peptide, peptide encompassing the GD domain from Bax]” as the molecule, how does the “inhibition” value read?
**A.** concentration-dependent inhibition of binding

**Q.** Which “inhibition” value does the source give for AADPLHQAMRAAGDEFETRF [Bcl-w peptide] here?
**A.** did not block binding

The molecules below were run on Rat-1 cells (assay: Transient transfection cell killing assay (loss of β-galactosidase-positive blue cells)). Conditions: Rat-1 cells co-transfected with β-galactosidase marker plasmid, 24 hours post transfection, relative to control vector.
Format: cell-based
Protocol: The transient transfection assay procedure is similar to that previously described for detecting apoptosis induced by IL-1E-converting enzyme (Miura et al., Cell 75: 653-660 (1993); Kumar et al., Genes Dev. 8: 1613-1626 (1994); Wang et al., Cell 78: 739-750 (1994). One day prior to transfection, Rat-1 cells were plated in 24 well dishes at 3.5X10^4 cells/well. The following day, the cells were transfected with a marker plasmid encoding β-galactosidase (0.16 μg), in combination with an expression plasmid encoding Bak (0.42 μg), by the Lipofectamine procedure (Gibco/BRL). At 24 hours post transfection, cells were fixed and stained with X-Gal to detect J-galactosidase expression in cells that received plasmid DNA (Miura et al., supra). The number of blue cells was counted by microscopic examination and scored as either live (flat blue cells) or dead (round blue cells). The cell killing activity of Bak in this assay is manifested by a large reduction in the number of blue cells obtained relative to co-transfection of the β-gal plasmid with a control expression vector (i.e., with no bak cDNA insert).
The interpretation that loss of blue cells reflects the cell killing function of Bak is supported by a variety of observations: • 1. Rat-1 cells are rapidly killed by enforced Bak expression in stable transfection assays; • 2.
Enforced bak expression induces apoptosis in stable Rat-1 cell lines transfected with an inducible bak expression plasmid. In order to more rapidly assess the cell killing function of a large number of bak mutants, a transient transfection assay was employed. Rat-1 cells were transfected with a marker plasmid encoding β-galactosidase, in combination with an expression plasmid encoding Bak, or various control plasmids.

**Q.** For “Bax: Bcl-2 homolog and Bcl-2 interacting protein that induces apoptosis”, which “cell killing activity (reduction in number of blue β-gal expressing cells)” value is on record?
**A.** eliminate blue cells

**Q.** For “QVG: truncated Bak protein derivative corresponding to amino acids 73-123 (QVGRQLAIIGDDINRRYDSEFQTMLQHLQPTAENAYEYFTKIATSLFESGI; not fully specified)”, which “cell killing activity (reduction in number of blue β-gal expressing cells)” value is on record?
**A.** significantly reduced the number of blue cells

**Q.** How did the “cell killing activity (reduction in number of blue β-gal expressing cells)” value turn out when B1 was run?
**A.** eliminate blue cells

**Q.** Which “cell killing activity (reduction in number of blue β-gal expressing cells)” value does the source give for B2 here?
**A.** impaired in their ability to eliminate blue cells

**Q.** How did the “cell killing activity (reduction in number of blue β-gal expressing cells)” value turn out when B3 was run?
**A.** impaired in their ability to eliminate blue cells

Same assay, conditions: Rat-1 cells, co-transfection of Bak with Bcl-xL

**Q.** How did the “restoration of number of blue cells on co-transfection with Bak” value turn out when “Bcl-xL: long form of bcl-x product, suppresses apoptosis” was run?
**A.** partially restored

The molecules below were run on HeLa cells (assay: Microinjection assay, protection from anti-Fas and cycloheximide induced death). Conditions: HeLa cells microinjected with 0.3 mg/ml protein, anti-Fas and cycloheximide 18 hours.
Format: cell-based
Protocol: HeLa cells (>100 cells/condition) were microinjected without (buffer) or with GST-Bcl-xL (0.3 mg/ml) in the absence or presence of GD domain peptides (0.5 mg/ml) and the recovery of live injected cells was determined after treatment with anti-Fas and cycloheximide for 18 hours. FITC-dextran was coinjected as a marker. A 15-amino acid Bak GD domain peptide (Bak-15; residues 73-87; […] [SEQ ID NO: 37]) and a mutant Bak GD domain peptide with an alanine substitution at leucine 78 (Bak-15L78A; […] [SEQ ID NO: 38]) were tested.
A cell-based microinjection assay is provided for the identification of agents that antagonize GD domain-mediated interactions and inhibit the cell death suppression activity of Bcl-xL and/or Bcl-2. One or preferably more than one cells are microinjected with a death suppressor protein, such as Bcl-xL or Bcl-2, which protects the cells from induction of cell death by an apoptosis-inducing agent, in the presence of a test compound, composition or agent. Compounds that bind to the death suppressor protein and prevent its protective function, resulting in the death of the microinjected cells, can thereby be identified.
The ability of GD domain peptide variants to inhibit the function of Bcl-xL correlated with their ability to bind to Bcl-xL (see FIG. 10). […] Similar results were obtained with MRC5 human diploid fibroblasts where protection from anti-Fas-induced death by microinjected Bcl-xL was inhibited by co-injection of the wild-type, but not mutant, Bak BH3 peptide.
Microinjection procedure: HeLa cells were plated in complete DMEM in 60 mm dishes at 2.4×10^5 cells per dish. […] Following injection, the cells were returned to the incubator and after 1 hour the number of injected cells was determined by fluorescence microscopy. Cells were then treated with anti-Fas mAb (7C11) and cycloheximide ([…]) and the recovery of injected cells remaining after 18 hours was determined.

**Q.** How did the “protection from death induced by Fas ligation” value turn out when “GST-Bcl-xL: bacterially-expressed GST fusion protein of the survival protein Bcl-xL” was run?
**A.** efficiently protected HeLa cells from death

Same assay, conditions: HeLa cells, microinjected peptide, absence of anti-Fas treatment

**Q.** Which “effect on cell viability” value does the source give for QVGRQLAIIGDDINR [Bak-15] here?
**A.** neither peptide had an effect on cell viability

**Q.** QVGRQAAIIGDDINR [Bak-15L78A] was tested. Which “effect on cell viability” value did it give?
**A.** neither peptide had an effect on cell viability

These molecules were tested against Bcl-xL (Homo sapiens, UniProt Q07817) (assay: In vitro protein binding assay, 35S labeled protein with GST-Bcl-xL on glutathione-agarose beads). Conditions: tested both in vitro and in transfected COS cells.
Set-up: made in house; host or cells: E. coli
Protocol: A). Bak/Bcl-xL interactions measured in vitro. ^35S labeled in vitro translated Bak (lane 1) was mixed either with GST-Bcl-xL (lane 2) or GST (lane 3). The complexes were captured on glutathione-agarose beads, and bound ^35S labeled Bak protein was detected by electrophoresis on SDS polyacrylamide gels followed by autoradiography.
The beads were removed by centrifugation and the supernatants were incubated with GST or GST-Bcl-xL (final concentration […]) at 4° C. for 1 hour. The GST fusion proteins and any interacting proteins were recovered by incubation for 1 hour with an additional […] of GSH-agarose beads. The beads were washed twice with NP-40 lysis buffer followed by two washes with NP-40 lysis buffer without NP-40. Proteins were eluted from the beads by incubation in SDS-PAGE sample buffer at 100° C. for 5 min and loaded onto 4-20% SDS-polyacrylamide gels. Following electrophoresis, gels were fixed and incubated in a fluorography enhancing solution (Amplify; Amersham). The gels were dried and subjected to autoradiography at −70° C.

Sequence of Bcl-xL (Q07817 whole entry): as the sequence (Q07817 whole entry, the tested form may be a part) above

**Q.** For “Bax: Bcl-2 homolog and Bcl-2 interacting protein that induces apoptosis”, which Bcl-xL binding capacity is on record?
**A.** interact specifically with Bcl-xL

**Q.** Which Bcl-xL binding capacity does the source give for “QVG: truncated Bak protein derivative corresponding to amino acids 73-123 (QVGRQLAIIGDDINRRYDSEFQTMLQHLQPTAENAYEYFTKIATSLFESGI; not fully specified)” here?
**A.** bound Bcl-xL

**Q.** Which Bcl-xL binding capacity does the source give for “PEM: truncated Bak protein derivative corresponding to amino acids 58-103 (PEMVTLPLQPSSTMGQVGRQLAIIGDDINRRYDSEFQTMLQHLQPT; not fully specified)” here?
**A.** bound Bcl-xL

**Q.** For B1, which Bcl-xL binding capacity is on record?
**A.** interact specifically with Bcl-xL

**Q.** How did the Bcl-xL binding capacity turn out when B2 was run?
**A.** no longer have the capacity to interact with Bcl-xL

**Q.** For B3, which Bcl-xL binding capacity is on record?
**A.** no longer have the capacity to interact with Bcl-xL
